Patent US20220177589A1 (OXFORD UNIVERSITY INNOVATION, published 2022)
Residue numbers refer to the chain shown, from its start.

T1: full length cynomolgus BTLA expressed in a Jurkat T cell line (cynomolgus monkey, UniProt Q7Z6A9 31-289 (human entry))
T1 chain: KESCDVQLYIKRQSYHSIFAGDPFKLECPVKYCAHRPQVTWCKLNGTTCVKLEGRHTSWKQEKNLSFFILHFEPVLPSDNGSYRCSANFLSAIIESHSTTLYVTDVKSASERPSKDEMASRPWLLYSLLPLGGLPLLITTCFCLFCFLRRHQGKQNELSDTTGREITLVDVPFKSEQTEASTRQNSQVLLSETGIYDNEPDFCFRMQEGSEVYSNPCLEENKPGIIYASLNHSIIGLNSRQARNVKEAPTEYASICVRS

B1: 2.8.6 (antibody, IgG1, V domains shown)
VH: QVQLKESGPGLVAPSQSLSITCTVSGFSLTTYGVHWVRQSPGKGLEWLGVMWPGGRTSYNPAPMSRLSISKDNSKSQVFLKMNSLQTDDTAMYYCVRGDYEYDYYAMDYWGQGTSVTVSS
VL: QIVLSQSPAILSASPGEKVTMTCRASSSVSYMHWYQQKPGSSPKPWIYATSNLASGVPARFSGSGSGTSYSLTISRMEAEDAATYYCHQWSSNPYTFGGGTKLEIK
B2: 11.5.1 (antibody, IgG1, V domains shown)
VH: EVQLQESGPSLVKPSQTLSLTCSVTGDSITSAYWNWIRKFPGNKLEYMGYISYSGSTYFNPSLKSRISITRNTSKNQYYLQLNSVTTEDTATYYCARSHYYGYYFDYWGHGTTLTVSS
VL: DIVLTQSPASLAVSLGQRATISCRASETIDSYGDSLMHWYQQKAGQPPKLLIYRASNLESGIPARFSGSGSRTDFTLTINPVEADDVATYYCQQTDEDPYTFGGGTKLEIK
B3: 4B1 (antibody, IgG1, V domains shown)
VH: QVQLQQSGAELARPGASVRLSCKASGYTFTSYGLIWLKQRTGQGLEWIGEIYPRSGSTYYNEWFKGKATLTADKSSNTAFMELRSLTSEDSAVYFCARRRGTGDGFDYWGQGTILTVSS
VL: DIQMTQTTSSLSASLGDRVTISCSASQGISNYLNWYQQKPDGTVKLLIYYTSSLHSGVPSRFSGSGSGTDYSLTISNLEPEDIATYYCQQYIELPFTFGSGTKLEIK
B4: 8B4 (antibody, IgG1, V domains shown)
VH: QVQLQQSGAELARPGASVKLPCKASGYTFTSYGISWVKQRTGQGLEWIGEIYPRSGTTYYNEKFKGKATLTADKSSSTAYMELRSLTSEDSAVYFCARRISSGSGVDYWGQGTTLTVSS
VL: B3 VL with I92S, F96W, S100G
B5: 24H7 (antibody, IgG1, V domains shown)
VH: QVQLQQSGAELVRPGASVTLSCKASGYTFTDYEIHWVKQTLVHGLEWIGPIDPDTGNTAYNQNLKGKAILTADKSSSTAYMELRSLTSEDSAVYYCTRGGYDSDWGFAYWGQGTLVTVSA
VL: DIVMTQATPSVPVTPGESVSISCRSSKSLLHSNGNTFLFWFLQRPGQSPQLLIYRMSDLASGVPDRFSGSGSGTAFTLRISRVEAEDVGIYYCMQHLEYPFTFGSGTKLEIK
B6: 6.2 (antibody, IgG1, V domains shown)
VH: EVKLVESGGGLVKPGGSLKLSCAASGFTLSSYGMSWVRQIPEKRLEWVASIRSDGNTYYPDSVKGRFIISRDNARNILYLQMSSLRSEDTAMYYCTRGGYYGSSPYYWGQGTTLTVSS
VL: DIVMSQSPSSLPVSVGEKISMTCKSSQSLLYSSNQKNYLAWYQQKPGQSPKLLIYWASTRDSGVPDRFIGSGSGTDFTLTINSVKAEDLAVYYCQQYYNYLTFGAGTKLELK
B7: 14D4 (antibody, IgG1, V domains shown)
VH: QVQLQQPGAELVKPRASVKLSCKASGYTFTSYWMHWVKQRPGQGLEWIGMIHPNNGIPNYNEKFKSKATLTVDKSSTTAYMQLSSLTSEDSAVYHCAREGYYGSEGYFDVWGTGTTVTVSS
VL: QIVLTQSPAIMSASPGEKVTMTCSASSSISYIHWYQQKPGTSPKRWIYDTSKLASGVPARFSGSGSGTSYSLTISSMEAEDAATYYCHQRSTYPYTFGGGTKLEIK
B8: 831 (antibody, V domains shown)
VH: DVQLQESGPDLVKPSQSLSVTCTVTGYSITSGYSWHWIRQFPGNKLEWMGYIHYSGSTNYNPSLKSRISITRDTSKNQFFLQLSSVTTEDTATYYCASGPHRYDGVWFAYWGQGTLVTVSS
VL: EIVLTQSPTTMAASPGEKITITCSASSSISSNYLHWYQQKPGFSPKLLIYRTSNLASGVPARFSGSGSGTSYSLTIGTMEAEDVATYYCQQGTNIPLTFGAGTKLEIK
B9: 16H2 (antibody, IgG1, V domains shown)
VH: EVQLQQSGPELVQPGASVKISCKASGYTFTDYYMIWVKQSHGKSLEWIGNINPNNGGTTYNQKFKGKATLTVDKSSSTAYMGLPSLTSEDSAVYYCARGGLRPLYFDYWGQGTTLTVSS
VL: NIVMTQSPKSMSMSVGERVTLSCKASENVDTYVSWYQQKPEQSPKLLIYGASNRYTGVPDRFTGSGSATDFTLTISSVQAEDLADYHCGQSYSYPLTFGAGTKLELI
B10: 21C7 (antibody, IgG1, V domains shown)
VH: QIQLQQSGPELVKPGASVKISCKASGYAFSSSWMNWVKKRPGKGLEWIGRIYPGDGDANYNGKFKGKATLTADKSSSTAYMQLSSLTSEDSAVYFCAGEGHYYGSGYRWYLDVWGTGTTVTVSS
VL: DIQMTQSPASLSVSVGETVTITCRASENIYSNLAWYQQKQGKSPQLLVYAATNLADGVPSRFSGSGSGTQYSLKINSLQSEDFGSYYCQHFRGAPFTFGSGTKLEIK

Biological target: T1, full length cynomolgus BTLA expressed …
Assay: cell-based or functional assay

Row | Binder | IC50, inhibition of NFkB-GFP reporter in BTLA transfected Jurkat cells
1 | B1 | 0.22 nM
2 | B2 | 0.14 nM

Biological target: T2, chimeric BTLA of humanised-BTLA mice (human extracellular region, murine transmembrane and signaling … (human; mouse, UniProt Q7TSA3 184-306, limits assumed)
T2 sequence (Q7TSA3 other isoform, or with tags, fused parts or gaps mutant limits assumed): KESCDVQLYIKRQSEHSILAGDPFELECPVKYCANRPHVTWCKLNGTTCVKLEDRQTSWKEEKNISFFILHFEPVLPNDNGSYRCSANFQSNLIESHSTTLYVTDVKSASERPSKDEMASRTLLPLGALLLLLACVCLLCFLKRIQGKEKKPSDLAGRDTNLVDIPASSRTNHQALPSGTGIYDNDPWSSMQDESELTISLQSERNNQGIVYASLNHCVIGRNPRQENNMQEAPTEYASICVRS
Assay: cell-based or functional assay

Row | Binder | IC50, inhibition of CD4 T cell proliferation in a mixed lymphocyte reaction
3 | B1 | 0.029 nM
4 | B2 | 0.016 nM

Biological target: full length human BTLA expressed in a Jurkat T cell line (human, UniProt Q7Z6A9 31-289)
Assay: cell-based or functional assay

Row | Binder | T cell reporter (NFkB signaling), % inhibition
5 | B3 | 23%
6 | B4 | 24%
7 | B5 | 22%
8 | B6 | 26%
9 | B7 | 16%
10 | B8 | 24%
11 | B9 | 29%
12 | B10 | 23%

Biological target: T2, chimeric BTLA of humanised-BTLA mice …
Assay: cell-based or functional assay
Remark: another data set of the same source

Row | Binder | AntiCD3/CD28 (CD4 T cell proliferation) repeat 1, % inhibition | AntiCD3/CD28 (CD4 T cell proliferation) repeat 2, % inhibition | AntiCD3/CD28 (CD69+ CD4 T cells) repeat 1, % inhibition | AntiCD3/CD28 (CD69+ CD4 T cells) repeat 2, % inhibition | MLR (CD4 T cell proliferation) repeat 1, % inhibition | MLR (CD4 T cell proliferation) repeat 2, % inhibition
13 | B1 | 23% | 35% | 58% | 67% | 30% | 36%
14 | B3 | 14% | 18% | 47% | 41% | 33% | 30%
15 | B4 | 20% | 4% | 51% | 47% | 33% | 23%
16 | B5 | 13% | 23% | 52% | 44% | 23% | 31%
17 | B6 | 19% | 21% | 53% | 61% | 31% | 35%
18 | B2 | 21% | 28% | 50% | 47% | 23% | 18%
19 | B7 | 24% | 29% | 43% | 52% | 39% | 26%
20 | B8 | 10% | 8% | 50% | 53% | 25% | 34%
21 | B9 | 11% | 23% | 51% | 60% | 40% | 26%
22 | B10 | 10% | -4% | 39% | 35% | 8% | 17%
